Experimental data: patent US20230235080A1, “TROPHOBLAST CELL-SURFACE ANTIGEN-2 (TROP-2) ANTIBODIES” (Bionecure Therapeutics, Inc., priority 2020, published 2023)

T1: human Trop-2-ECD-6His fusion protein (human, UniProt P09758 27-274)
T1 construct: Expressed in a human 293 cell line; also called huTrop-2; human Trop-2 antigen
T1 sequence: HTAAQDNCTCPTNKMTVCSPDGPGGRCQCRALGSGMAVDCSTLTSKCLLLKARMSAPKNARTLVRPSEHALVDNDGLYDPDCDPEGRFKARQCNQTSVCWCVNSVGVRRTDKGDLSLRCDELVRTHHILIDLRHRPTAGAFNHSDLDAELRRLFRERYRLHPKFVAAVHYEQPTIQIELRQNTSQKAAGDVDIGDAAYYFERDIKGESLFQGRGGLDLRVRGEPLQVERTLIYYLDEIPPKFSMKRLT

T2: human Trop-2ECD-6His (Homo sapiens, UniProt P09758)
T2 construct: made in house; host or cells: human 293 cell line
T2 sequence (P09758 with tags, fused parts or gaps): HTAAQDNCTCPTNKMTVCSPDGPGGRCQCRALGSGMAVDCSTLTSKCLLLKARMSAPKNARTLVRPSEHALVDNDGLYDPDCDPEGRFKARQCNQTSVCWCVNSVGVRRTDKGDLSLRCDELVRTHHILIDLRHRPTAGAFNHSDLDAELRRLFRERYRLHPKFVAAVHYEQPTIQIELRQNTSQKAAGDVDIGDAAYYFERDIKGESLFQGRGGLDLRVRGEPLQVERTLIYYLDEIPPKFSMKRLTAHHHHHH

T3: mouse Trop-2-His (Mus musculus, UniProt Q8BGV3)
T3 sequence (Q8BGV3 25-317): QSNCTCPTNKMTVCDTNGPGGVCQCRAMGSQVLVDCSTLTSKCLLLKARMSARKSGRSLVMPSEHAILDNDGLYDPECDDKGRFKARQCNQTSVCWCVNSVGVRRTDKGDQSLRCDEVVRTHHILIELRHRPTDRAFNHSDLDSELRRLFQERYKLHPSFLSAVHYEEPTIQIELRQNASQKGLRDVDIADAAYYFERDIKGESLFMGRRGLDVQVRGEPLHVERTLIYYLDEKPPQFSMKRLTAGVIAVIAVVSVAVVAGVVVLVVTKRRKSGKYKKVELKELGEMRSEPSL

T4: human EPCAM-His (Homo sapiens, UniProt P16422)
T4 sequence (P16422 24-314): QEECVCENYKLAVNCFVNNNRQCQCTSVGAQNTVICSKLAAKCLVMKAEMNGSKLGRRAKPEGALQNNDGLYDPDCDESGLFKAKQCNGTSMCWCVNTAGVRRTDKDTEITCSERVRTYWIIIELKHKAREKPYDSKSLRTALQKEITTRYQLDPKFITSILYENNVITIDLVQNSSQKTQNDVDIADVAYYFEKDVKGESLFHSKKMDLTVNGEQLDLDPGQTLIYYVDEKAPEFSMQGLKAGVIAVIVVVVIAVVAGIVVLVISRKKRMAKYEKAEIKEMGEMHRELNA

T5: human Trop-2-ECD-6His fusion protein (Homo sapiens, UniProt P09758)
T5 construct: made in house; host or cells: human 293 cell line
T5 sequence (P09758 with tags, fused parts or gaps): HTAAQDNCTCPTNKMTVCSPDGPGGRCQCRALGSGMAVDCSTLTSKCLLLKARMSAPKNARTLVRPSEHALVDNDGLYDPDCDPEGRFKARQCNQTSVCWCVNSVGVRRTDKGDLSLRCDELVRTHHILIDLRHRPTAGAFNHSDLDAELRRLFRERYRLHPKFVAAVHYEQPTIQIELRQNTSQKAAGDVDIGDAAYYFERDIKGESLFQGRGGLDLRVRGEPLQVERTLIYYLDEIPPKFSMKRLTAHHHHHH

B1: humanized IgG #118-2-5 Hu(A1)/LuX (antibody, V domains shown)
VH: QVQLQESGPGLVKPSETLSLTCTVSGFSLTSYGVNWIRQPPGKGLEWIGVMWAGGSTNYNSALMSRVTISVDTSKNQFSLKLSSVTAADTAVYYCARDENWDGAWFAYWGQGTLVTVSS
VL: DIVMTQSPDSLAVSLGERATINCKSSQSLLNSGTRKNYLAWYQQKPGQPPKLLIYWASSRESGVPDRFSGSGSGTDFTLTISSLQAEDVAVYYCKQSYNLFTFGGGTKVEIK
notes: Second round of humanization
B2: #125-1-5 (antibody, listed as Mus musculus, V domains shown)
VH: QIQLVQSGPELVKPGASVKMSCKASGYTFTTYVIHWVKQKPGQGLEWIGYINPNNDGTKYNEKFKGKATLISDKSSTTAYMEVRGLTSEDSAVYYCARPHFETHAMDYWGQGTSVTVSS
VL: DIQMTQSPSSFSVSLGDSVTITCKASEDIFNRLAWYQQKPGNAPRLLISGATSLETGVPSRFSGGGSGKEYTLSITSLQNEDVATYYCQQYWNTWTFGGGTKLEIK

Key:
[1] = target: T1, human Trop-2-ECD-6His fusion protein; assay: ELISA on immobilized Trop-2-ECD-6His; control, 1 to 10 ratio
[2] = target: T1, human Trop-2-ECD-6His fusion protein; assay: ELISA on immobilized Trop-2-ECD-6His; control, 1 to 1 ratio
human Trop-2ECD-6His = target: T2, human Trop-2ECD-6His; assay: Cross-reactivity ELISA, human Trop-2; format: binding; conditions: plate coated with 1 µg/mL antigen
Experimental: (§1) Cross-reactivity of chimeric IgG #118-2-5 and #125-1-5 to the Trop-2 antigens from different species was assessed by ELISA. In this experiment, a microtiter plate was coated overnight at 4° C. with 50 µL/well of 1 µg/mL human Trop-2ECD-6His, mouse Trop-2-His, cynomolgus Trop-2-His, human EPCAM-His, and a non-related protein. The plate was washed and blocked for 1 hr at 37° C., and then washed with wash buffer. Purified chimeric IgGs appropriately diluted in PBS were added to wells and incubated for 1 hr at 37° C. After washing, bound antibodies were detected using HRP-conjugated goat-anti-human IgG Ab. Color development and absorbance at OD450 nm were read. A non-specific mock mouse IgG and a non-specific mock human IgG were included as the negative controls, while anti-His antibody was used as a positive control.
(§2) The cross-reactivity of purified IgGs to the Trop-2 antigens from different species was tested by ELISA. In this experiment, a microtiter plate was coated overnight at 4° C. with 50 µL/well of 1 µg/mL human Trop-2ECD-6His, mouse Trop-2-His, cynomolgus Trop-2-His, human EPCAM-His, and a non-related protein. The plate was washed and blocked for 1 hr at 37° C., and then washed with wash buffer. […] After washing, bound antibodies were detected using HRP-conjugated goat-anti-human IgG antibody. Color development and absorbance at OD450 nm were read. […]

mouse Trop-2-His = target: T3, mouse Trop-2-His; assay: Cross-reactivity ELISA, mouse Trop-2; format: binding; conditions: plate coated with 1 µg/mL antigen
Experimental: as §1
(§3) The cross-reactivity of purified IgGs to the Trop-2 antigens from different species was tested by ELISA. In this experiment, a microtiter plate was coated overnight at 4° C. with 50 µL/well of 1 µg/mL human Trop-2ECD-6His, mouse Trop-2-His, cynomolgus Trop-2-His, human EPCAM-His, and a non-related protein. The plate was washed and blocked for 1 hr at 37° C., and then washed with wash buffer. Purified anti-Trop-2 antibodies appropriately diluted in PBS were added to wells and incubated for 1 hour at 37° C. After washing, bound antibodies were detected using HRP-conjugated goat-anti-human IgG antibody. Color development and absorbance at OD450 nm were read. A non-specific human IgG1 was included as a negative control, while hRS7 was used as a positive control.

human EPCAM-His = target: T4, human EPCAM-His; assay: Cross-reactivity ELISA, human EPCAM; format: binding; conditions: plate coated with 1 µg/mL antigen
Experimental: as §1, §3

non-related protein = assay: Cross-reactivity ELISA, non-related protein; format: binding; conditions: plate coated with 1 µg/mL protein
Experimental: as §1, §3

cynomolgus Trop-2-His = assay: Cross-reactivity ELISA, cynomolgus Trop-2; format: binding; conditions: plate coated with 1 µg/mL antigen
Experimental: as §1, §2

[3] = test system: Trop-2 positive breast cancer cell line MDA-MB-468; assay: Internalization assay by flow cytometry (Example 2 protocol); format: cell-based, human; conditions: Table 4; chimeric IgGs; 2 hours at 37° C.; 100 × (MFI4°C - MFI37°C) / MFI4°C
Experimental: The chimeric IgG1 #118-2-5 and #125-1-5 were further evaluated by internalization assay using Trop-2 positive breast cancer cell line MDA-MB-468. MDA-MB-468 cells were seeded at 1×10^5 cell/well. Next, the chimeric or benchmark IgGs were added to cells in FACS buffer and incubated for 2 hours at 4° C. After incubation, the cells were washed to remove unbound antibody. The cells were then incubated at 37° C. After 2 hours, the cells were dissociated and stained with fluorescent-conjugated […] secondary antibodies for 30 minutes on ice in dark before being analyzed using Beckman flow cytometry system. The fluorescent intensity and cell binding percentage at each time point were analyzed by Beckman flow cytometric software. The amount of chimeric IgGs internalized into cells was determined using the following formula: % internalization rate = 100 × (MFI4°C - MFI37°C) / MFI4°C.

[4] = target: T5, human Trop-2-ECD-6His fusion protein; assay: Antigen binding assay (ELISA) on immobilized Trop-2-ECD-6His; conditions: for OD value, Conditioned Medium 1 to 1 ratio / OD value, Conditioned Medium 1 to 10 ratio: Table 3, ELISA absorbance at 405 nm
Experimental: Using the HCVR sequence and LCVR sequence of mAbs #118-2-5 and #125-1-5, two murine-human chimeric IgG1 (hereinafter “chimeric IgG1”) was prepared which comprised the heavy chain sequences set forth in SEQ ID NOs: 47 and 49, and the light chain sequences set forth in SEQ ID NOs: 48 and 50. Nucleic acids encoded by SEQ ID NO: 19, 20 and SEQ ID NO: 21, 22 were amplified and inserted into pTT5 to make an expression plasmid of the full-length IgG. The heavy chain and light chain expression plasmids were used to co-transfect 100 mL HEK293-6E cells. The recombinant IgG secreted into to media was purified using protein A affinity. The purified IgG migrated as ~150 kDa band in SDS-PAGE under non-reducing conditions, ~55 kDa and ~30 kDA bands under reducing condition. The purity of the chimeric IgG is >90%. The binding affinity between the chimeric IgGs and a human Trop-2-ECD-6His fusion protein (SEQ ID NO:2) was determined by ELISA. The Trop-2-ECD-6His fusion protein was immobilized on the surface of a microplate wells and incubated with the chimeric IgGs. A secondary enzyme-labeled goat-anti-mouse IgG-AP was then added. After washing, the activity of the microplate well-bound enzyme was measured by adding the substrate. Color development and absorbance at 405 nm were read.

[5] = target: T1, human Trop-2-ECD-6His fusion protein; assay: antigen binding ELISA on immobilized human Trop-2-ECD-6His
[6] = target: human Trop-2 on Trop-2 positive cancer cells (human) (UniProt P09758); assay: cell-based or functional assay

Row | Molecule | OD (absorbance at 405 nm) [1] [OD] | OD (absorbance at 405 nm) [2] [OD] | binding to human Trop-2 antigen (ELISA, OD450 nm) (human Trop-2ECD-6His) | recognition of mouse Trop-2 (ELISA, OD450 nm) (mouse Trop-2-His) | recognition of mouse Trop-2 (ELISA, OD450 nm) (mouse Trop-2-His; listed as benchmark IgG) | recognition of hEPCAM (ELISA, OD450 nm) (human EPCAM-His) | recognition of hEPCAM (ELISA, OD450 nm) (human EPCAM-His; listed as benchmark IgG) | recognition of the non-related protein (ELISA, OD450 nm) (non-related protein) | recognition of the non-related protein (ELISA, OD450 nm) (non-related protein; listed as benchmark IgG) | binding to cynomolgus Trop-2 antigen (ELISA, OD450 nm) (cynomolgus Trop-2-His) | Internalization rate [3] [%] | OD value, Conditioned Medium 1 to 1 ratio [4] | OD value, Conditioned Medium 1 to 10 ratio [4] | EC50 [5] [nM] | Internalization rate (flow cytometry, MDA-MB-468 cells) [6] [%] | binding affinity to Trop 2 compared with benchmark hRS7 ([4]; in words, chimeric IgGs, see OD value in Table 3)
1 | BSA (from UniProt P02769 25-607) | 0.058 | 0.059 |  |  |  |  |  |  |  |  |  |  |  |  |  | 
2 | hRS7: anti-Trop2 antibody used in sacituzumab govitecan (IMMU-132); used as a benchmark antibody [reference compound] |  |  | able to bind | some non-specific binding | did not recognize | some non-specific binding | did not recognize | some non-specific binding | did not recognize | able to bind | 17.62 | 1.339 | 1.457 |  |  | 
3 | B1 |  |  |  |  |  |  |  |  |  |  |  |  |  | 0.28 | 56 | 
4 | B2 |  |  | able to bind | did not recognize |  | did not recognize |  | did not recognize |  | able to bind | 4.70 | 1.572 | 1.539 |  |  | higher binding affinity than the benchmark reference antibody hRS7
